Source: IntAct's records for PubMed 22904686

B1: Latent membrane protein 1 (Epstein-Barr virus (strain B95-8) (HHV-4)), P03230 (parent)
chain: MEHDLERGPPGPRRPPRGPPLSSSLGLALLLLLLALLFWLYIVMSDWTGGALLVLYSFALMLIIIILIIFIFRRDLLCPLGALCILLLMITLLLIALWNLHGQALFLGIVLFIFGCLLVLGIWIYLLEMLWRLGATIWQLLAFFLAFFLDLILLIIALYLQQNWWTLLVDLLWLLLFLAILIWMYYHGQRHSDEHHHDDSLPHPQQATDDSGHESDSNSNEGRHHLLVSGAGDGPPLCSQNLGAPGGGPDNGPQDPDNTDDNGPQDPDNTDDNGPHDPLPQDPDNTDDNGPQDPDNTDDNGPHDPLPHSPSDSAGNDGGPPQLTEEVENKGGDQGPPLMTDGGGGHSHDSGHGGGDPHLPTLLLGSSGSGGDDDDPHGPVQLSYYD

Variants of: B1
Conditions: with tnik_human TNIK

Variant	effect of a mutation on the interaction
Y384G	disrupting interaction strength
